# The nanobody polyreactivity screen of Harvey et al. (2022)
# Assay: yeast display, Sf9 membrane polyspecificity reagent, FACS + sequencing; frameworks hold sequencing errors
# Outline: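 After 36–48 hours of galactose induction, yeast (Saccharomyces cerevisiae BJ5465) displaying a synthetic nanobody library were stained at 4 °C for 1 hour with 10% biotinylated, detergent-solubilized Sf9 membrane reagent. Streptavidin microbeads enriched the stained cells before FACS sorting into low and high (top ~1%) gates on anti-HA and streptavidin fluorescence. Each clone's polyreactivity label reflects its gate of origin.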
row,Sequence,polyreactivity (PSR sort gate)
1,QVQLVESAGGLVQAGGSLRLSCAASAFTFFDYVMGWYRQAPGKERELVAAISRNVGSTYYADSVKGRFTISRDNAKNTVYLQMNSLKPEDTAVYYCAGEPPPYEYDYWGQGTQVTVSS,high polyreactivity
2,QVQLVESAGGLVQAGGSLRLSCAASAFTFRWYDMGWYRQAPGKERELVAAIDASDGSTYYSDSVKGSFTISRDNPKNTVYLPMNSLKPEDTAVYYCATRLRGGGKGYYYWGQGTQVTVSS,high polyreactivity
3,QVQLVESAGGLVQAGGSLRLSCAASGFIFVRNAMGWYRPAPGKVRELVAAISRSGGRTYNADSVKGRFTISRDNAKNTVYLQMNSLKPEDTAVYYCAARSGYFRSRFDYWGQGTQVTVSS,high polyreactivity
4,QVQLVESAGGLVQAGGSLRLSCAASGFTFKSNAMGWYRQAPGKEREMVAAIDSRGDRTYYADSVKGRFTISRDNAKNTVYLQMNSLKPEDTAVYYCATKWRTYWSSGEYWGQGTQVTVSS,high polyreactivity
5,QVQLVESAGGLVQAGGSLRLSCAASGFTFLYYAMGWYRKAPGKEREFVAAISYTGGSTYYADSVKGRFTISRDNAKNTVYLQMNSLKPEDTAVYYCAVDGYYWFGSIFDYWGQGTQVTVSS,low polyreactivity
6,QVQLVESAGGLVQAGGSLRLSCAASGITFAWYAMGWYRQAPGKERELVAAITRGGGSTYYADSVKGRFTISRDNAKNTVYLQMNSLKPEATAVYYCAARPYSYPYGYWGQGTQVTVSS,low polyreactivity
7,QVQLVESAGGLVQAGGSLRLSCAASGITFKYNAMGWYRQAPGKERELVAAISKGGGSTYYADSVKGRFTISRDNAKNTVYLQMNSLKPEDTAVYYCAARRWYRFDYWGQGTQVTVSS,high polyreactivity
8,QVQLVESAGGLVQAGGSLRLSCAASGITFSYYTMGWYRQAPGKEREFVATIRRGGSTNYADSVKGRFTISRDNAKNTVYLQMNSLKPEDTAVYYCAADLRRNGWGFDYWGQGTQVTVSS,high polyreactivity
9,QVQLVESAGGLVQAGGSLRLSCAASGITFYEYVMGWYRQAPGKERELVASIDWSGGGTYYADSVKGRFTISRDNAKNTVYLQMNSLKPEDTAVYYCNADYFDYSRPRYDYWGQGTQVTVSS,low polyreactivity
10,QVQLVESAGGLVQAGGSLRLSCAASGITHHHNAIGWSRQAPRKERELVAAITSNGGSTYYAVSVKGRFTISRDHAKNSVYLQINSLKPEDTAVYYCARDSKRLARYYYWGQGTQVTVSS,low polyreactivity
11,QVQLVESAGGLVQAGGSLRLSCAASGLTFTGNAIGWYRQAPGKERQCVAAIRWSAGSTYYADSVKGRVTISRDNAKNTVYLQMNSLKPEDTAVYYCNAALNVSGHYPNDYWGQGTQVTVSS,low polyreactivity
12,QVQLVESAGGLVQAGGSLRLSCAASGMILWRYSMGWYRKAPGKEMEFVAAISYRAGSTYYADSVKGRFTISRDNAKNTVYLQMNSLKPEDTAVYYCAAGLKRFGSYPWLKSGMGYWGQGTQVTVSS,high polyreactivity
13,QVQLVESAGGLVQAGGSLRLSCAASGNTFANYAMGWDRQAPGKERELVAAITRGGSTFYADSVKGRFTISRDNAKNTVYLQMNSLKPEDSAVYYCAKGYGTNTRYYHRYRYDYWGQGTQVTVSS,high polyreactivity
14,QVQLVESAGGLVQAGGSLRLSCAASGNTFWFYGMGWYRPAPGKVRELVAAITSGGSTDYPDSVKGRCTISRDNAKNTVYLQMNSLKPEDTALYYCAAEPVAYYGSSYGYWGQGTQVTVSS,low polyreactivity
15,QVQLVESAGGLVQAGGSLRLSCAASGRIFKFYTMGWYRQAPGKERELVAAISSSDGSTHYADSVKGRFTISRDNAKNTVYLQMNSLKPEDTAVYYCAAQGGRNRGYRYYWGQGTQVTVSS,high polyreactivity
16,QVQLVESAGGLVQAGGSLRLSCAASGRIFLYNAMGWYRQAPGKERELVAVISSNGGRTYYADSVKGRFTISRDNAKNTVYLQMNSLKPEDTAVYYCAAVQHYVTHMDYWGQGTQVTVSS,low polyreactivity
17,QVQLVESAGGLVQAGGSLRLSCAASGRIFRSNAMGWYRQAPGQERELVAAINNRDTSTYADSVKGRFTISRDNAKNTVYLQMNSLKPEDTAVFYCAARYQYYSTYGVTLDYWGQGSQVTVSS,low polyreactivity
